Data taken from US20250221953A1 (The University of Chicago, priority 2022, published 2025).

System: Jurkat T cells
Type: cell-based, human
Conditions: IL-2 production level in treated group compared to control group; 48 hours treatment, then anti-CD3/anti-CD28 12 hours
Text: Two preliminary screens were designed and performed.
To construct “blood chemical compound library for cell-based screening purposes, components such as antibodies that are difficult to distinguish due to a wide variety, and some supplements that only function at a whole organism level including fish oils and herbs were excluded. Physiological ranges of serum levels of individual blood chemicals are available in the human metabolome database (https://hmdb.ca/) and applied in the experimental design. For first screen 1a, Jurkat T cells were treated with blood chemical library for 48 hours and then activated with 2.5 μg/mL anti-CD3 and 0.5 μg/mL anti-CD28 antibodies for another 12 hours, followed by measurement of IL-2 level in medium supernatant using ELISA kit (Biolegend). For first screen 1b, 1×10^5 PD-1^+ Jurkat T cells were co-cultured with 2×10^4 H596 (PD-L1^+) cells in a well of 96-well plate for 60 hours, and then activated with 2.5 μg/mL anti-CD3 and 0.5 μg/mL anti-CD28 antibodies for another 12 hours, followed by measurement of IL-2 level in medium supernatant using ELISA kit. Please also refer to Resources Table and Table 1-2 for more details.

B1: LIPASE FROM PORCINE PANCREAS (protein, UniProt P00591 1-450, looked up)
Pancreatic triacylglycerol …: SEVCFPRLGCFSDDAPWAGIVQRPLKILPWSPKDVDTRFLLYTNQNQNNYQELVADPSTITNSNFRMDRKTRFIIHGFIDKGEEDWLSNICKNLFKVESVNCICVDWKGGSRTGYTQASQNIRIVGAEVAYFVEVLKSSLGYSPSNVHVIGHSLGSHAAGEAGRRTNGTIERITGLDPAEPCFQGTPELVRLDPSDAKFVDVIHTDAAPIIPNLGFGMSQTVGHLDFFPNGGKQMPGCQKNILSQIVDIDGIWEGTRDFVACNHLRSYKYYADSILNPDGFAGFPCDSYNVFTANKCFPCPSEGCPQMGHYADRFPGKTNGVSQVFYLNTGDASNFARWRYKVSVTLSGKKVTGHILVSLFGNEGNSRQYEIYKGTLQPDNTHSDEFDSDVEVGDLQKVKFIWYNNNVINPTLPRVGASKITVERNDGKVYDFCSQETVREEVLLTLNPC
In the case of B1, the “Relative changed percentage (%)” value is reported as −9.403%.
